The target of this assay is human FcRn (complex of His-tagged FcRn alpha chain with beta 2 microglobulin) (human) (UniProt P55899). In words: SPR (Biacore), human FcRn on chip, pH 6.0.

These results are taken from patent publication US8883973B2.

As to 257L IgG1 anti-VEGF antibody, the fold FcRn binding (fold of Ka* relative to WT IgG1) was found to be 3.4 fold.

Take 257N IgG1 anti-VEGF antibody: the fold FcRn binding (fold of Ka* relative to WT IgG1) was found to be 3.5 fold.

The substance 428L/434S IgG1 anti-VEGF antibody returned a fold FcRn binding (fold of Ka* relative to WT) of 17.3 fold.

The substance 434S IgG1 anti-VEGF antibody showed a fold FcRn binding (fold of Ka* relative to WT) of 3.8 fold.
